This note sets out measurements from article PMC5079630.

The subject of data set [1] is STAT1 (Tyr701-phosphorylated; GAF) (human (U6A cells)). Description: EMSA. The conditions noted are these: Combined cytoplasmic and nuclear extracts of U6A cells (IFN-beta 500 U/ml or IFN-gamma 50 U/ml, 1 h), normalized for pY701-STAT1; 10 nM dsDNA probe; buffer ….
The target in a further data set is importin-α5 (UniProt P52294). Description: anti-FLAG co-immunoprecipitation, immunoblot. The conditions noted are these: reference: STAT1-YFP wild type; sites Y701.
The target in data set [2] is STAT1 N domain (UniProt P42224). As to the kind of experiment: AUC; sedimentation equilibrium of one N domain alone; homodimer to monomers; concentrations not given.
STAT1 N domain, sequence (P42224 whole entry): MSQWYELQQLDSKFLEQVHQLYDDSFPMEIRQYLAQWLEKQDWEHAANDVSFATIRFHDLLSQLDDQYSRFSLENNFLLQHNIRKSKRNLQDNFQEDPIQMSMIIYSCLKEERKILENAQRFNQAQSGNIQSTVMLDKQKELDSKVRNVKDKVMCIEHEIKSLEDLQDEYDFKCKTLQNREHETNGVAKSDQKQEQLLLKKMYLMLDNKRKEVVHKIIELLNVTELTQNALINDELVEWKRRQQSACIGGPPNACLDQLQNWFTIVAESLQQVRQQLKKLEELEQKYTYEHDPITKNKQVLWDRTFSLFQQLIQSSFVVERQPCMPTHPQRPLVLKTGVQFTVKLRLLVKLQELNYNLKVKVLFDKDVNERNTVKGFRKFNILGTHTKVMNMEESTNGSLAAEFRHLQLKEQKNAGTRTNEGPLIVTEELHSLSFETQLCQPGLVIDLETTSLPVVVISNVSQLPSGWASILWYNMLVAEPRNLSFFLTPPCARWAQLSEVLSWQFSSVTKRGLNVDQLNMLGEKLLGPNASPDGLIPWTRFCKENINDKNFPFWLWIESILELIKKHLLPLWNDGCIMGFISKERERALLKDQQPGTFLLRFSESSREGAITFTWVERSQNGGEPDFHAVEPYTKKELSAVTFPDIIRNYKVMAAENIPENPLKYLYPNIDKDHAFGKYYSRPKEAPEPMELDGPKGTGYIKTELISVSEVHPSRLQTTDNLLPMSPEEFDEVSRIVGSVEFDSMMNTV
Data set [3] has the same target. As to the kind of experiment: AUC; sedimentation equilibrium; STAT1 N domain and mEGFP-tagged STAT2 N domain at final equimolar concentrations of 2.5, 10 and 40 uM; heterodimer to monomers.
For another data set, the target named is STAT2 N domain (human) (UniProt P52630). Description: AUC; sedimentation equilibrium of one N domain alone; homodimer to monomers; concentrations not given.

With GAS (M67) probe, the binding signal (% of GAF activity without STAT2) in data set [1] turned out to be 25. Consider “STAT1 (from UniProt P42224) STAT1-YFP Y701F”, for which, in the data set with importin-α5, the “binding against the reference” value is “lost”.

Substance “STAT1 N domain (from UniProt P42224 1-750) (domain or fragment)” yielded a Kd with STAT1 N domain [2] of 16.6 µM. With “STAT2 N domain (from UniProt P52630 1-851) (domain or fragment)”, the Kd worked out at 0.01 µM in the data set with STAT1 N domain [3] and 704 µM with STAT2 N domain (human). In turn, “STAT2 N domain LL81,82AA (from UniProt P52630 1-851) (domain or fragment)” had a Kd with STAT1 N domain [3] of 5480 µM.
